Experimental data as given in publication PMC12833063.

Target: anti-PD-L1×avβ3 dual function antibody (B1451)
Assay: SPR; Biacore T200; B1451 captured at about 35 RU on anti-human IgG (Fc) immobilised on a CM5 chip; human αvβ3 injected, 2-fold dilutions 12.5-400 nM, association 120 s; regeneration 10 mM glycine-HCl pH 1.5; 1:1 binding model

Chain of human αvβ3 (P06756 31-1048): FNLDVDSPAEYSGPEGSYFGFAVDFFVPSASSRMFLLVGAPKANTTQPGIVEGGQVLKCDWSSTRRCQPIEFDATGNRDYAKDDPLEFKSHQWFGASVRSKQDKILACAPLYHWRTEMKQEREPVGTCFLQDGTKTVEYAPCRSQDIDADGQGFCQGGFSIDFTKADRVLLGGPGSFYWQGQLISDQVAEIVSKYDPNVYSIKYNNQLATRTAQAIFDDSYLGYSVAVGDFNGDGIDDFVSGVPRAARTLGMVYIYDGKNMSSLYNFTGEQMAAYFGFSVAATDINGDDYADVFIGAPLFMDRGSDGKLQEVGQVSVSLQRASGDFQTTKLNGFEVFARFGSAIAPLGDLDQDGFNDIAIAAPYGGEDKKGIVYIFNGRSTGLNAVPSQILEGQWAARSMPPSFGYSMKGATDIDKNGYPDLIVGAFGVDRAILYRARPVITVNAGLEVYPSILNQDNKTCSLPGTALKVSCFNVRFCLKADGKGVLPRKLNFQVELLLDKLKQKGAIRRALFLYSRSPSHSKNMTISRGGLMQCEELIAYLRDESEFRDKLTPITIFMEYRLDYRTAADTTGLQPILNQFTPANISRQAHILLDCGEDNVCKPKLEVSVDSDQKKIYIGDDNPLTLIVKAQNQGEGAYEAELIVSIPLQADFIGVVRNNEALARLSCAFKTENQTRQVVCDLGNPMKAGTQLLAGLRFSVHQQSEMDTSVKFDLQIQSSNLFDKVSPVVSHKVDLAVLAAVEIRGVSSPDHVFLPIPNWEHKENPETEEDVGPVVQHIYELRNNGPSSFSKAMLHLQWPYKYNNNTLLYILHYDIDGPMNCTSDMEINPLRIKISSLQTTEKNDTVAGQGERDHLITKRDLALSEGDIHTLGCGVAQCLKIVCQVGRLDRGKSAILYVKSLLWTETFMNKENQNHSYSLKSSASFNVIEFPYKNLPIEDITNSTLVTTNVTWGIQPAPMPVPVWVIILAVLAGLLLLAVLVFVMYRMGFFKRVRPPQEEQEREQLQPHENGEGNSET
Chain of human αvβ3 (P05106 27-718): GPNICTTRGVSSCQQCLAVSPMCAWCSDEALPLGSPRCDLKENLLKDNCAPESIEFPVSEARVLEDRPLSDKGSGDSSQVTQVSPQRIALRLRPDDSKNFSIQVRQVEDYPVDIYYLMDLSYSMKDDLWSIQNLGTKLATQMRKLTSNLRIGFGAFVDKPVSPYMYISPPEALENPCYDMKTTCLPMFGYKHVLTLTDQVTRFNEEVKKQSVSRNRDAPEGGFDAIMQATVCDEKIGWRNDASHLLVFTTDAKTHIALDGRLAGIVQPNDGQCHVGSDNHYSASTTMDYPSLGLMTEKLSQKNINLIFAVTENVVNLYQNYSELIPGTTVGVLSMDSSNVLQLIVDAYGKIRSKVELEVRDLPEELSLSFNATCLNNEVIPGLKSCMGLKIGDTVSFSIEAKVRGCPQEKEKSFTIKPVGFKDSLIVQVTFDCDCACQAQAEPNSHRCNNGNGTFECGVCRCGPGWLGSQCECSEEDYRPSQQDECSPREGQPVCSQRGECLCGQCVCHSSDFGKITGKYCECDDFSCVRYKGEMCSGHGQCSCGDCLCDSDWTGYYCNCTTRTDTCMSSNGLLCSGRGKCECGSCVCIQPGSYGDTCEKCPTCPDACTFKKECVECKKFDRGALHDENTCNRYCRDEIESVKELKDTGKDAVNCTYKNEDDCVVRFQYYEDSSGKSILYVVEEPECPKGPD

human αvβ3 (from UniProt P06756 31-1048; P05106 27-718) (complex)
Kd: 15.5 µM
